Laboratory results: patent US20210338852A1 (NIHON MEDI PHYSICS, published 2021)
Each block holds one binder with its values, some of them ahead of it.

Assays:
[1] = target: T1, mucin subtype 5AC (MUC5AC) (human (from transplanted human …, UniProt P98088 28-5654, limits assumed)); assay: in vitro autoradiography; mean of small ROIs in MUC5AC positive vs negative tumor sections
T1 construct: Secretory mucin glycoprotein; target present in tumor tissue sections, not as purified protein

[2] = target: T1, mucin subtype 5AC (MUC5AC); assay: in vitro autoradiography; whole-section ROI of MUC5AC positive vs negative tumor sections

binding ratio to the MUC5AC positive tumor and the negative tumor [1]: 6.5 fold
B1: ^225Ac-labeled anti-MUC5AC humanized antibody prepared using ^225Ac-labeled DOTAGA-DBCO (monovalent antibody; H01L03) (antibody, human IgG1, kappa, V domains shown)
VH: EVQLLESGGGLVQPGGSLRLSCAASGFTFSNYGMSWVRQAPGKGLEWVSTISNSGRYTYFPDSVKGRFTISRDNSKNTLYLQMNSLRAEDTALYYCTRHLDYANYDAMDYWGQGTLVTVSS
VL: DIQMTQSPSSLSASVGDRVTITCRASKSVTTSDFSYMHWYQQKPGKSPKLLIYLASNLESGVPSRFSGSGSGTDFSLTISSLQPEDFATYYCQHSREFPWTFGGGTKVEIKR
modifications: Fc region site-specifically modified (Lys252, Eu numbering) by one molecule per antibody of antibody-modification peptide (SEQ ID NO: 10 with Xaa2 = lysine, disulfide between its two cysteines, N-terminal diglycolic acid-PEG8-ethyl azide); azide click-reacted with ^225Ac-chelated DOTAGA-DBCO
notes: also called RI-labeled anti-MUC5AC humanized antibody prepared using ^225Ac-labeled DOTAGA-DBCO; ^225Ac-labeled antibody

binding ratio to the MUC5AC positive tumor and the negative tumor [2]: 151 fold
B2: ^89Zr-labeled anti-MUC5AC humanized antibody prepared using ^89Zr-labeled DOTA-Bn-DBCO (monovalent antibody; H01L03) (antibody, human IgG1, kappa, V domains shown)
VH: B1 VH
VL: B1 VL
modifications: Fc region site-specifically modified (Lys252, Eu numbering) by one molecule per antibody of antibody-modification peptide (SEQ ID NO: 10 with Xaa2 = lysine, disulfide between its two cysteines, N-terminal diglycolic acid-PEG8-ethyl azide); azide click-reacted with ^89Zr-chelated DOTA-Bn-DBCO (formula L1-4)
notes: also called RI-labeled anti-MUC5AC humanized antibody prepared using ^89Zr-labeled DOTA-Bn-DBCO

binding ratio to the MUC5AC positive tumor and the negative tumor [2]: 138 fold
B3: ^89Zr-labeled anti-MUC5AC humanized antibody prepared using ^89Zr-labeled DOTAGA-DBCO (monovalent antibody; H01L03) (antibody, human IgG1, kappa, V domains shown)
VH: B1 VH
VL: B1 VL
modifications: Fc region site-specifically modified (Lys252, Eu numbering) by one molecule per antibody of antibody-modification peptide (SEQ ID NO: 10 with Xaa2 = lysine, disulfide between its two cysteines, N-terminal diglycolic acid-PEG8-ethyl azide); azide click-reacted with ^89Zr-chelated DOTAGA-DBCO
notes: also called RI-labeled anti-MUC5AC humanized antibody prepared using ^89Zr-labeled DOTAGA-DBCO; ^89Zr complex-labeled antibody
